B1: GCAGAGGAUCACCACGCUAUU UUCAAGAGA AAUAGCGUGGUGAUCCUCUGC (nucleic acid)
chain 1: GCAGAGGATCACCACGCTATT
chain 2: AAUAGCGUGGUGAUCCUCUGC
chain 3: GCAGAGGAUCACCACGCUAUUUUCAAGAGAAAUAGCGUGGUGAUCCUCUGC
modifications: expressed or natural sequence; chain 1: target site or template, no part of the molecule
notes: shRNA targeting SRSF1
B2: GGGCCCAGAAGUCCAAGUUAU UUCAAGAGA AUAACUUGGACUUCUGGGCCC (nucleic acid)
chain 1: GGGCCCAGAAGTCCAAGTTAT
chain 2: AUAACUUGGACUUCUGGGCCC
chain 3: GGGCCCAGAAGUCCAAGUUAUUUCAAGAGAAUAACUUGGACUUCUGGGCCC
modifications: expressed or natural sequence; chain 1: target site or template, no part of the molecule
notes: shRNA targeting SRSF1
B3: GGAAGAUCUCGAUCUCGAAGC UUCAAGAGA GCUUCGAGAUCGAGAUCUUCC (nucleic acid)
chain 1: GGAAGATCTCGATCTCGAAGC
chain 2: GCUUCGAGAUCGAGAUCUUCC
chain 3: GGAAGAUCUCGAUCUCGAAGCUUCAAGAGAGCUUCGAGAUCGAGAUCUUCC
modifications: expressed or natural sequence; chain 1: target site or template, no part of the molecule
notes: shRNA targeting SRSF1

Each molecule was assayed on SRSF1 (assay: Western immunoblotting of SRSF1 in human cells co-transfected with scAAV plasmids and C9ORF72-repeat reporter). Conditions: co-transfected with sense or antisense C9ORF72-repeat reporter, FIG. 4.
Assay type: cell-based

Depletion of SRSF1, efficient depletion of SRSF1:
B1
B2
B3

Reference: patent publication US20260041793A1, “VIRAL VECTOR” (University of Sheffield, priority 2022, published 2026)
